Where no end group is shown, it is not given here. The star is where a group is joined. Carboxymethyl = O=C(O)C*
Legend:
[1] = Particle size and zeta potential of peptide DNA condensates after freeze-drying and rehydration, Example 2; format: physicochemical
Description: The concentration of AlkCWK18 and PEG-CWK18 were determined by UV absorbance (Trp, ε280 nm=5,600 M^−1 cm^−1). Peptide DNA condensates were prepared in 5 mM Hepes pH 5 at a peptide/DNA stoichiometry of 0.3 nmol of peptide/μg of DNA. The condensates were formed by adding 450 μL of 100 μg/mL NT-βGal drop wise to 450 μL of 30 nmol/mL AlKCWK18 or PEG-CWK18 while vortexing. Each sample was prepared in triplicate, and after a 30 min equilibration, 20-100 μL of 50 wt/vol % solutions of either glucose, mannitol, galactose, dextran or sucrose were added followed by normalization to 1 mL to give a final sugar concentration of 1-5 wt/vol % and DNA concentration of 50 μg/mL.
The mean particle size of 50 μg/mL AlkCWK18 DNA condensates were determined by quasielastic light scattering (QELS) on a Brookhaven ZetaPlus™. Samples (1 mL) were frozen rapidly in dry ice ethanol in a 1.5 mL microcentrifuge tube and then lyophilized on a Labconco™ freeze dryer for 24 h operated at a constant vacuum of 55×10^−6 mBar while maintained at room temperature (22° C.). The maximal vacuum was achieved within 2 min after applying the sample.
At the highest sucrose concentration of 5 wt/vol %, samples remained frozen throughout freeze-drying but dried to form a glassy solid after 24 h. […] Freeze-dried samples prepared in triplicate were reconstituted in 1 mL of deionized water, allowed to equilibrate for 30 min and then analyzed by QELS as described above. Large peptide DNA condensates were measured by light microscopy with magnification of 100X. The particle size of PEG-peptide DNA condensates were also measured by transmission electron microscopy (TEM) according to a published procedure (Wadhwa et al., 1997).
The relationship between pH and rehydrated peptide DNA condensate particle size was examined in 5 mM Hepes at a pH range of 3-7. The particle size of 50 μg/mL DNA condensates in 5 wt/vol % sucrose was determined by QELS before and after freeze-drying as described above.
The rehydrated particle size of AlkCWK18 or PEG-CWK18 DNA condensates were also examined at a concentration of 0.05-5 mg/mL in 5 mM Hepes pH 5 with (AlkCWK18 DNA) or without (PEG-CWK18 DNA) the addition of 5 wt/vol % sucrose. DNA condensates were freeze-dried and reconstituted to the original concentration. QELS particle size analysis before and after freeze-drying required dilution of an aliquot of the sample to concentration of 50 μg/mL. Freeze-dried 5 mg/mL PEG-CWK18 DNA condensates were also reconstituted in 0.9 wt/vol % sodium chloride and analyzed for particle size.

[2] = Solubility of peptide DNA condensates: particle size as a function of DNA concentration; format: physicochemical; details: when increasing DNA concentration from 50 to 500 μg/ml
[3] = QELS particle size and zeta potential of PEG-peptide DNA condensates and co-condensates, Example 1; format: physicochemical; details: charge ratio of 1.8:1 or higher; 50 μg/ml DNA in Hepes
Description: The particle size of peptide DNA condensates were analyzed at a DNA concentration of 50 μg/ml in Hepes by quasielastic light scattering (QELS). The particle surface change was determined by zeta potential analysis using a Brookhaven ZetaPlus™ (Brookhaven Instruments).
DNA co-condensates were prepared by add-mixing AlkCWK18 and PEG-VS-CWK18 in ratios ranging from 0 to 100 mol %, and condensing DNA at a charge ratio of 2.3:1 as described above. To establish the mol ratio of peptides bound to DNA, condensates were dialyzed in a fixed volume (0.5 ml) dialyzer for 75 h against water using a 100,000 MWCO membrane. Peptide DNA condensates in the retentate (0.5 ml) were dissociated by adding 50 μl of 5 M sodium chloride in 0.1% TFA. AlkCWK18 and PEG-VS-CWK18 were quantified by injecting 1 nmol of peptide (100 μl) onto analytical RP-HPLC eluted with 0.1% TFA and a gradient of acetonitrile (5 to 65% over 30 min) while detecting tryptophan by fluorescence (λex 280 nm, λem 350 nm). The peak integration areas were used to quantify AlkCWK18 and PEG-VS-CWK18 with reference to standard curves developed for each peptide.

plasmid DNA = assay: Fluorescent dye (thiazole orange) displacement assay of peptide binding to DNA, Example 1; details: corresponding to a charge ratio of 1.8:1
Description: Peptide DNA condensates were formed by adding 75 μg of DNA (pCMVL in 750 μl of 5 mM Hepes pH 7.4) to varying amounts of peptide (7.5 to 90 nmol in 750 μl of Hepes) while vortexing, followed by equilibration at RT for 1 h. Peptide binding to DNA was monitored by a fluorescent dye displacement assay (Wadhwa et al. 1997). A 1 μg aliquot of the peptide DNA condensate was diluted to 1 ml in Hepes containing 0.1 μM thiazole orange. The fluorescence of the intercalated dye was measured on an LS50B fluorimeter (Perkin Elmer, UK) in a microcuvette by exciting at 500 nm while monitoring emission at 530 nm.

[4] = QELS particle size and zeta potential of glycopeptide DNA condensates, Example 3; format: physicochemical; details: 0.5 nmol of peptide or glycopeptide per μg of DNA; 50 μg/mL DNA in HBM
Description: Glycopeptide DNA condensates were formed at a plasmid DNA concentration of 50 μg/mL in HBM (5 mM Hepes 0.27 M mannitol pH 7.4). DNA condensates were formed by combining 750 μL of plasmid DNA (100 μg/mL) with 750 μL of triantennary-CWK18 (50 nmol/mL), Man9-CWK18, or AlkCWK18 while vortexing. The particle size of glycopeptide and peptide DNA condensates were analyzed at a DNA concentration of 50 μg/mL in HBM by quasielastic light scattering (QELS) (Cohen et al., 1990). The particle surface charge was determined at 50 μg/mL in HBM by zeta potential analysis using a Brookhaven ZetaPlus™ (Brookhaven Instruments).

COS 7 cells = assay: Nuclear targeted β-galactosidase (X-gal) count of transfected COS 7 cells; format: cell-based; details: COS 7, 48 h, NTβGal plasmid
Description: The number of cells transfected in vitro was examined using a plasmid encoding nuclear targeted β-galactosidase followed by X-gal (5-bromo-4-chloro-3-indolyl-β-galactopyranoside) staining. HepG2 and COS 7 cells were transfected for 5 h as described above with either AlkCWK18 DNA, peptide II DNA condensates, or plasmid DNA and then grown in fresh media for an additional 43 h. After removing media, cells were fixed for 5 min in phosphate-buffered saline (PBS, pH 7.3) containing 1.25 vol/vol % glutaraldehyde and then stained by incubation with 0.05 wt/v % X-gal, 1 mM magnesium chloride, 10 mM potassium ferricyanide, and 10 mM potassium ferrocyanide in PBS. After 4 h at 37° C., the X-gal solution was removed and the nuclear stained blue cells were counted with a light microscope under ten power magnification by averaging the number of transfectants from nine fields. Values were analyzed for significance by one-way analysis of variance.

Row | Substance | minimum sucrose concentration to bulk DNA condensates during freeze-drying ([1]; 50 μg/ml DNA condensates) | diameter of fibrous flocculates after freeze-drying and rehydration without lyoprotectant ([1]; 50 μg/ml DNA condensates, light microscopy) | upper limit of DNA condensate concentration below which rehydrated particle size was maintained ([1]; 5 wt/vol % sucrose, 5 mM Hepes pH 5) | mean particle diameter during rehydration ([1]; 5 wt/vol % sucrose, DNA concentrations up to 200 μg/mL) | zeta potential ([1]; pH 3) | particle size of DNA condensates [2] | mean diameter of DNA condensates [3] | peptide:DNA stoichiometry at the asymptote of the dye displacement titration curve (relative DNA binding affinity) (plasmid DNA) | mean particle size of DNA condensates [4] | more cells positively stained vs. AlkCWK18 (COS 7 cells)
1 | Alk-S-Cys-Trp-Lys18 (C(Carboxymethyl)WKKKKKKKKKKKKKKKKKK) [AlkCWK18] | 1 wt/vol % | approximately 100 μm | 200 µg/mL | less than 50 nm | +30 mV | 60 to 400 nm | 60 nm | 0.3 nmol per μg of DNA | 81 nm | –
2 | Cys-Trp-Lys17-Cys (CWKKKKKKKKKKKKKKKKKC) [Peptide II] | – | – | – | – | – | – | – | – | – | 4 fold
